PMC6359974

Molecular target: polymerized MTs of COV362 lysate (taxol-treated) (human (endogenous in COV362)) (UniProt P68363)
Assay: co-sedimentation

Sequence of UniProt P68363 (P68363 whole entry, chain 1 of 2): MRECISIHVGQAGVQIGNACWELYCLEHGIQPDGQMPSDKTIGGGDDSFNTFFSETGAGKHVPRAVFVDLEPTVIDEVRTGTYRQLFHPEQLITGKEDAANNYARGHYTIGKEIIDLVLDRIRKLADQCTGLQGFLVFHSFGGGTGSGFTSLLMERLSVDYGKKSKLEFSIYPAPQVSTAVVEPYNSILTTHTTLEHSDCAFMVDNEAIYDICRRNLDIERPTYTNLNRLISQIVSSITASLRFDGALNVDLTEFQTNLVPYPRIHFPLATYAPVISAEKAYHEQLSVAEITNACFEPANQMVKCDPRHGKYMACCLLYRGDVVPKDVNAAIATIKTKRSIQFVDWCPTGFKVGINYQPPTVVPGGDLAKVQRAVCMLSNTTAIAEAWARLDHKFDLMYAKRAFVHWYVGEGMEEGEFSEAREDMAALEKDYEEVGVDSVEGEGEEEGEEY
Sequence of UniProt P68363 (P07437 whole entry, chain 2 of 2, further chain): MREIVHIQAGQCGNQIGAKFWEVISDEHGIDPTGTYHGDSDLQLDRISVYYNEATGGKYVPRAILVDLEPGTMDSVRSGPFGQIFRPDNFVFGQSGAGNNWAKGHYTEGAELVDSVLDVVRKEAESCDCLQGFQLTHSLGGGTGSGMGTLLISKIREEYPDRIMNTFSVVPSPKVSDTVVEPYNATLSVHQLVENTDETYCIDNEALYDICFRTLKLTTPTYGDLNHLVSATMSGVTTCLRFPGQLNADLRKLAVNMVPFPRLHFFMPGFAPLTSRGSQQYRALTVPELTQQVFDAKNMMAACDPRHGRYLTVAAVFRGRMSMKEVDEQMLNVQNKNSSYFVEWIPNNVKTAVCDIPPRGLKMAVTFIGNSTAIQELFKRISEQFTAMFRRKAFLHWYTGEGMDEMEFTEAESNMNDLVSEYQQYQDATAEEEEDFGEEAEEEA

- percent of UNC-45A bound to MTs: 100%
B1: UNC-45A (endogenous, COV362 cells) (natural protein)
chain: MTVSGPGTPEPRPATPGASSVEQLRKEGNELFKCGDYGGALAAYTQALGLDATPQDQAVLHRNRAACHLKLEDYDKAETEASKAIEKDGGDVKALYRRSQALEKLGRLDQAVLDLQRCVSLEPKNKVFQEALRNIGGQIQEKVRYMSSTDAKVEQMFQILLDPEEKGTEKKQKASQNLVVLAREDAGAEKIFRSNGVQLLQRLLDMGETDLMLAALRTLVGICSEHQSRTVATLSILGTRRVVSILGVESQAVSLAACHLLQVMFDALKEGVKKGFRGKEGAIIVDPARELKVLISNLLDLLTEVGVSGQGRDNALTLLIKAVPRKSLKDPNNSLTLWVIDQGLKKILEVGGSLQDPPGELAVTANSRMSASILLSKLFDDLKCDAERENFHRLCENYIKSWFEGQGLAGKLRAIQTVSCLLQGPCDAGNRALELSGVMESVIALCASEQEEEQLVAVEALIHAAGKAKRASFITANGVSLLKDLYKCSEKDSIRIRALVGLCKLGSAGGTDFSMKQFAEGSTLKLAKQCRKWLCNDQIDAGTRRWAVEGLAYLTFDADVKEEFVEDAAALKALFQLSRLEERSVLFAVASALVNCTNSYDYEEPDPKMVELAKYAKQHVPEQHPKDKPSFVRARVKKLLAAGVVSAMVCMVKTESPVLTSSCRELLSRVFLALVEEVEDRGTVVAQGGGRALIPLALEGTDVGQTKAAQALAKLTITSNPEMTFPGERIYEVVRPLVSLLHLNCSGLQNFEALMALTNLAGISERLRQKILKEKAVPMIEGYMFEEHEMIRRAATECMCNLAMSKEVQDLFEAQGNDRLKLLVLYSGEDDELLQRAAAGGLAMLTSMRPTLCSRIPQVTTHWLEILQALLLSSNQELQHRGAVVVLNMVEASREIASTLMESEMMEILSVLAKGDHSPVTRAAAACLDKAVEYGLIQPNQDGE
